Data on 58 variants can be found in the Human Domainome abundance scans (Beltran et al. 2025).

The chains are these.
B1: Chromodomain-helicase-DNA-binding protein 7, residues 2564 to 2605; numbered along this chain, Q9P2D1 (parent)
chain: DPDTRIPVINLEDGTRLVGEDAPKNKDLVEWLKLHPTYTVDM

± gives the uncertainty stated by the source.

In this data set the parent is B1. Nature of the data set: abundance fitness (aPCA) (normalised: wild type 0, dead -1); higher = more abundant; growth selection in yeast, the domain comes from the species named. As to conditions: Homo sapiens.
DPDTRIPVINLEDGTRLVGEDAPKNKDLVEWLKLHATYTVDM [P36A]: the abundance fitness was -0.561 ± 0.06.

In the case of DPDTRIPVINLEDGTRLVGEDAPKNKDLVEWLKLHWTYTVDM [P36W], the abundance fitness was -0.731 ± 0.1. Take DPDTRIPVINLEDGTRLVGEDAPKNKDLVEWLKLHKTYTVDM [P36K]: the abundance fitness was -0.321 ± 0.39.

As for DPDTRIPVINLEDGTRLVGEDAPKNKVLVEWLKLHPTYTVDM [D27V], the abundance fitness is -0.448 ± 0.068.

With DPDTRIPVINLEDGTRLVGEDAPKNKYLVEWLKLHPTYTVDM [D27Y], the abundance fitness was -0.417 ± 0.1. In the case of DPDTRIPVINLEDGTRLVGEDAPKNKWLVEWLKLHPTYTVDM [D27W] it was -0.563 ± 0.073; in that of DPDTRIPVINLEDGTRLVGEDAPKNKHLVEWLKLHPTYTVDM [D27H], -0.224 ± 0.076.

For DPDTRIPVINLEDGTRLVGEDAPKNKDLVEWLKNHPTYTVDM [L34N], the abundance fitness was -0.014 ± 0.066. In the case of DPDTRIPVINLEDGTRLVGEDAPKNKDLVEWLKMHPTYTVDM [L34M] it was 0.011 ± 0.077; in that of DPDTRIPVINLEDGTRLVGEDAPKNKDLVEWLKDHPTYTVDM [L34D], -0.042 ± 0.1; in that of DPDTRIPVINLEDGTRLVGEDAPKNKDLVEWLKAHPTYTVDM [L34A], 0.141 ± 0.077. In the case of DPDTRIPVINLEDGTRLVGEDAPKNKDLVEWLKVHPTYTVDM [L34V] it was -0.039 ± 0.076.

For DPDTRIPVINLEDGTRLVGEDAPKNKDLVEWLKPHPTYTVDM [L34P], the abundance fitness is -0.328 ± 0.095. As for DPDTRIPVINLEDGTRLVGEDAPKNKDLVEWLKHHPTYTVDM [L34H], the figure is -0.037 ± 0.066.

Take DPDTRIPVIRLEDGTRLVGEDAPKNKDLVEWLKLHPTYTVDM [N10R]: the abundance fitness is -0.409 ± 0.062. As for DPDTRIPVIILEDGTRLVGEDAPKNKDLVEWLKLHPTYTVDM [N10I], the figure is -1.4 ± 0.24. As for DPDTRIPVIHLEDGTRLVGEDAPKNKDLVEWLKLHPTYTVDM [N10H], the figure is -0.298 ± 0.1; as for DPDTRIPVIDLEDGTRLVGEDAPKNKDLVEWLKLHPTYTVDM [N10D], -0.154 ± 0.07; as for DPDTRIAVINLEDGTRLVGEDAPKNKDLVEWLKLHPTYTVDM [P7A], 0.067 ± 0.13. For the variant DPDTRIFVINLEDGTRLVGEDAPKNKDLVEWLKLHPTYTVDM [P7F], the abundance fitness is -1.07 ± 0.27. For DPDTRIPVINLEDGTRLVGEDAPKNFDLVEWLKLHPTYTVDM [K26F], the abundance fitness is -0.486 ± 0.11.

As for DPDTRIPVINLEDGTRLVGEDAPKNLDLVEWLKLHPTYTVDM [K26L], the abundance fitness is -0.559 ± 0.074. In the case of DPDTRIPVINLEDGTRLVGEDAPKNSDLVEWLKLHPTYTVDM [K26S] it was -0.106 ± 0.054; in that of DPDTRIPVINLEDGTRLVGEDAPKNMDLVEWLKLHPTYTVDM [K26M], -0.278 ± 0.061; in that of DPDTRIPVINLEDGTRLVGEDAPKNDDLVEWLKLHPTYTVDM [K26D], -0.258 ± 0.076. As for DPDTRIPVINLEDGTRLVGEDAPKNIDLVEWLKLHPTYTVDM [K26I], the figure is -0.255 ± 0.068. As for DPDTRIPVINLEDGTRLVGEDAPKYKDLVEWLKLHPTYTVDM [N25Y], the abundance fitness was -0.253 ± 0.094. As for DPDTRIPVINLEDGTRLVGEDAPKSKDLVEWLKLHPTYTVDM [N25S], the abundance fitness was -0.101 ± 0.082. As for DPDTRIPVINLEDGTRLVGEDAPKNKDLVEWLKLHPTYTVDA [M42A], the figure is 0.132 ± 0.081; as for DPDTRIPVINLEDGTRLVGEDAPKNKDLVEWLKLHPTYTVDK [M42K], -0.528 ± 0.36; as for DPDTRIPVINLEDGTRLVGEDAPKNKDLVEWLKLHPTYTVDH [M42H], -0.04 ± 0.27. In the case of DPDTRIPVINHEDGTRLVGEDAPKNKDLVEWLKLHPTYTVDM [L11H] it was 0.293 ± 0.073; in that of DPDTRIPVINCEDGTRLVGEDAPKNKDLVEWLKLHPTYTVDM [L11C], -0.195 ± 0.11; in that of DPDTRIPVINIEDGTRLVGEDAPKNKDLVEWLKLHPTYTVDM [L11I], 0.214 ± 0.085. Regarding DPDTRIPVINMEDGTRLVGEDAPKNKDLVEWLKLHPTYTVDM [L11M], the abundance fitness is 0.355 ± 0.16. In the case of DPDTRIPVINYEDGTRLVGEDAPKNKDLVEWLKLHPTYTVDM [L11Y], the abundance fitness came out at 0.064 ± 0.099. With DPDTRIPVINLEDGTRLVGEDAPKNKDLVEWLKLHPEYTVDM [T37E], the abundance fitness is -0.202 ± 0.089.

Turning to DPDTRIPVINLEDGTRLVGEDAPKNKDLVEWLKLHPPYTVDM [T37P], the abundance fitness is -0.281 ± 0.1. As to DPDTRIPVINLEDGTRLVGEDAPKNKDLVEWLKLHPAYTVDM [T37A], the abundance fitness is -0.131 ± 0.068. On to DPDTRIPVINLEDGTRLVGEDAPKNKDLVEWLKLHPMYTVDM [T37M], for which the abundance fitness is -0.082 ± 0.068. In the case of DPDTRIPVINLEDGTRLVGEDAPKNKDLVEWLKLHPHYTVDM [T37H] it was -0.014 ± 0.077; in that of DPDTRIPVINLEDGTRLVGEDAPKNKDLVEWLKLCPTYTVDM [H35C], -0.866 ± 0.088.

As to DPDTRIPVINLEDGTRLVGEDAPKNKDLVEWLKLTPTYTVDM [H35T], the abundance fitness was -0.616 ± 0.1. Turning to DPDTRIPVINLEDGTRLVGEEAPKNKDLVEWLKLHPTYTVDM [D21E], the abundance fitness is -0.207 ± 0.11. As for DPDTRIPVINLEDGTRLVGEQAPKNKDLVEWLKLHPTYTVDM [D21Q], the figure is -0.018 ± 0.17.

As for DPDTMIPVINLEDGTRLVGEDAPKNKDLVEWLKLHPTYTVDM [R5M], the abundance fitness is -0.242 ± 0.1. In the case of DPDTSIPVINLEDGTRLVGEDAPKNKDLVEWLKLHPTYTVDM [R5S] it was -0.303 ± 0.081; in that of DPDTRIPVINLEDGTRLVGEDWPKNKDLVEWLKLHPTYTVDM [A22W], -1.04 ± 0.1; in that of DPDTRIPVINLEDGTRLVGEDNPKNKDLVEWLKLHPTYTVDM [A22N], -0.519 ± 0.062.

On to DPDTRIPVINLEDGTRLVGEDAPANKDLVEWLKLHPTYTVDM [K24A], for which the abundance fitness was -0.022 ± 0.065. For DPDTRIPVINLEDGTRLVGEDAPKNKDLVEWFKLHPTYTVDM [L32F], the abundance fitness is -0.375 ± 0.14.

Take DPDTRIPVINLEDGTRLVGEDAPKNKDLVEWAKLHPTYTVDM [L32A]: the abundance fitness was -0.537 ± 0.095. In the case of DPDTRIPVINLEDGTRLVGEDAPKNKDLVEWIKLHPTYTVDM [L32I] it was -0.434 ± 0.093; in that of DPDTRIPVINLEDGTRFVGEDAPKNKDLVEWLKLHPTYTVDM [L17F], -0.191 ± 0.13; in that of DPDTRIPVINLEAGTRLVGEDAPKNKDLVEWLKLHPTYTVDM [D13A], -0.183 ± 0.18.

For the variant DPDTRIPVINLEDGTRLVGEDAPKNKDLVEWLKLHPTRTVDM [Y38R], the abundance fitness was -0.449 ± 0.064. As for DPDTRIPVINLEDGTRLVGEDAPKNKDLVEWLKLHPTVTVDM [Y38V], the figure is -0.652 ± 0.082; as for DPDTRIPVFNLEDGTRLVGEDAPKNKDLVEWLKLHPTYTVDM [I9F], -0.075 ± 0.1.
